Test results reported in US20250011363A1, “OPTIMIZED SHORTENED PEPTIDE THAT BINDS TO ACETYLCHOLINE RECEPTOR, AND USE THEREOF” (SKINMED CO., LTD., priority 2021, published 2025).

Target: acetylcholine receptor
Test: SPR, AchR immobilised, peptide 10 uM

Row | Binder | Binding affinity (RU)
1 | KKEEER [6mer-1-614] | 12
2 | RREMFK [6mer-1-641] | 21
3 | RKIDAK [6mer-1-633] | 16
4 | RRTDWR [6mer-1-623] | 21
5 | KKACMR [6mer-1-608] | 18
6 | KRPNVR [6mer-1-639] | 24
7 | KKTSER [6mer-1-615] | 18
8 | KKNCHK [6mer-1-611] | 23
9 | KKESHR [6mer-1-638] | 20
10 | KRHNVR [6mer-1-617] | 31
11 | KKCPNR [6mer-1-622] | 18
12 | KRPDNR [6mer-1-626] | 27
13 | KKHHER [6mer-1-610] | 27
14 | RKYKDR [6mer-1-636] | 27
15 | RRNCWR [6mer-1-640] | 25
16 | RREWFR [6mer-1-606] | 15
17 | RRTWWR [6mer-1-627] | 29
18 | RRYSDR [6mer-1-631] | 13

Row | Binder | Binding affinity (RU)
19 | KRIMER [6mer-1-612] | 17
20 | KRMEPR [6mer-1-630] | 14
21 | KRIMKK [6mer-1-613] | 14
22 | RKDTAR [6mer-1-632] | 17
23 | RRMAGK [6mer-1-621] | 30
24 | RKNPVR [6mer-1-609] | 24
25 | RRFEFK [6mer-1-637] | 33
26 | RKCHVK [6mer-1-618] | 19
27 | KKNTMR [6mer-1-634] | 12
28 | KREDKK [6mer-1-625] | 33
29 | KKPPAK [6mer-1-624] | 30
30 | RRENEK [6mer-1-628] | 23
31 | RRKTAK [6mer-1-620] | 11
32 | RKMDAK [6mer-1-629] | 11
33 | KKDHFR [6mer-1-607] | 22
34 | KKTTWK [6mer-1-635] | 33
35 | KKNTIK [6mer-1-616] | 31
36 | KKIDKR [6mer-1-619] | 23

More lines, now with the values ahead:

Row | Binding affinity (RU) | Binder
37 | 28 | RRPTHK [6mer-1-656]
38 | 31 | KRYHIR [6mer-1-1068]
39 | 33 | RRTTIR [6mer-1-645]
40 | 14 | RKPKWR [6mer-1-661]
41 | 17 | RRCTVR [6mer-1-657]
42 | 23 | KRPSNK [6mer-1-1081]
43 | 38 | RRKHWK [6mer-1-1067]
44 | 32 | RRIAGK [6mer-1-649]
45 | 29 | KKPSKR [6mer-1-659]
46 | 24 | RRKWGR [6mer-1-1077]
47 | 38 | RKTKAK [6mer-1-1071]
48 | 21 | KKCDGK [6mer-1-665]
49 | 25 | RKHPVK [6mer-1-1079]
50 | 26 | KKFKDR [6mer-1-663]
51 | 31 | KKYHVK [6mer-1-660]
52 | 38 | KKPSVK [6mer-1-1075]
53 | 18 | RRCNNR [6mer-1-650]
54 | 12 | RKNMFR [6mer-1-655]
55 | 26 | RRPEVK [6mer-1-652]
56 | 24 | KKTCDK [6mer-1-1070]
57 | 20 | RKKEMK [6mer-1-658]
58 | 36 | KKCTPR [6mer-1-1072]

Row | Binding affinity (RU) | Binder
59 | 27 | KRICWK [6mer-1-651]
60 | 23 | RKEDVK [6mer-1-1066]
61 | 43 | RKKEPK [6mer-1-1076]
62 | 24 | KRTCGR [6mer-1-1074]
63 | 33 | RRCTGK [6mer-1-646]
64 | 15 | KRMTHR [6mer-1-653]
65 | 24 | KKYNGK [6mer-1-642]
66 | 23 | KRMNDR [6mer-1-654]
67 | 25 | RRPDIK [6mer-1-1078]
68 | 17 | KKFWEK [6mer-1-648]
69 | 27 | RKYMWK [6mer-1-1073]
70 | 20 | KKMTER [6mer-1-662]
71 | 38 | KKHNMR [6mer-1-1080]
72 | 36 | KKNAVR [6mer-1-1083]
73 | 23 | KRDKAK [6mer-1-1065]
74 | 37 | KKTCDR [6mer-1-1082]
75 | 14 | RKYNVR [6mer-1-647]
76 | 31 | RKTWFR [6mer-1-644]
77 | 26 | KRDHIK [6mer-1-664]
78 | 23 | KKIWAR [6mer-1-1069]
79 | 31 | KRYSMR [6mer-1-643]
